From article PMC9712074
pKd: −log10 of the molar value.

Target: SA58 (BD55-5840), human IgG1 (human)
Assay: SPR

Substance: SARS-CoV-2 (BA.4/BA.5) Spike RBD Protein (His Tag) (from UniProt P0DTC2) (domain or fragment)
- pKd: 9.02
